The text below walks through data of patent US20240425837A1 (Novo Nordisk, published 2024).

In this assay the target is human plasma-derived coagulation Factor X (FX) (human) (UniProt P00742). As to the kind of experiment: cell-based or functional assay.
Chain of human plasma-derived coagulation Factor X (FX) (human) (P00742 41-179, chain 1 of 2): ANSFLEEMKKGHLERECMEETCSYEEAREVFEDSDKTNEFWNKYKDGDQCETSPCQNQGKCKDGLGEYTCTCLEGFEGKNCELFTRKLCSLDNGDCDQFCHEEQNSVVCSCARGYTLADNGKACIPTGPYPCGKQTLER
Chain of human plasma-derived coagulation Factor X (FX) (human) (P00742 183-488, chain 2 of 2): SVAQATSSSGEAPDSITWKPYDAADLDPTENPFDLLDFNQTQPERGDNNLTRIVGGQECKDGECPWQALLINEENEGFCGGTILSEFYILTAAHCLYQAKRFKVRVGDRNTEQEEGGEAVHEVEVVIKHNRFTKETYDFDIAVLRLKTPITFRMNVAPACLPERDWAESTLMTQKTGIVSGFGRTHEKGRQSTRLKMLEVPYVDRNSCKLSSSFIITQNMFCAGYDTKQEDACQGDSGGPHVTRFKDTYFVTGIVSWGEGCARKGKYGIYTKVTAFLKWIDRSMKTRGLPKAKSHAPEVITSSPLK

Take “Emicizumab sequence identical analogue (SIA) (bispecific antibody)”: the KM of FX activation by 0.1 nM FIXa with phospholipid vesicles, antibody at 300 nM amounted to 0.0535 µM.
